Assay results published in paper PMC10436073, “Saccharomyces cerevisiae NRE1 and IRC24 Encode Paralogous Benzil Oxidoreductases” (microPublication Biology, 2023).

B1: Irc24p (Saccharomyces cerevisiae S288C) (protein)
chain: MGKVILITGASRGIGLQLVKTVIEEDDECIVYGVARTEAGLQSLQREYGADKFVYRVLDITDRSRMEALVEEIRQKHGKLDGIVANAGMLEPVKSISQSNSEHDIKQWERLFDVNFFSIVSLVALCLPLLKSSPFVGNIVFVSSGASVKPYNGWSAYGCSKAALNHFAMDIASEEPSDKVRAVCIAPGVVDTQMQKDIRETLGPQGMTPKALERFTQLYKTSSLLDPKVPAAVLAQLVLKGIPDSLNGQYLRYNDERLGPVQG
B2: Nre1p (Saccharomyces cerevisiae S288C) (protein)
chain: MGKVILVTGVSRGIGKSIVDVLFSLDKDTVVYGVARSEAPLKKLKEKYGDRFFYVVGDITEDSVLKQLVNAAVKGHGKIDSLVANAGVLEPVQNVNEIDVNAWKKLYDINFFSIVSLVGIALPELKKTNGNVVFVSSDACNMYFSSWGAYGSSKAALNHFAMTLANEERQVKAIAVAPGIVDTDMQVNIRENVGPSSMSAEQLKMFRGLKENNQLLDSSVPATVYAKLALHGIPDGVNGQYLSYNDPALADFMP

Substrate: O=C(C(=O)c1ccccc1)c1ccccc1
Experiment: purified protein
Type: biochemical, Saccharomyces cerevisiae
Settings: NADPH 0.075 mM (preferred cofactor; NADH also measured), 10 mM Tris-HCl pH 8.0, 30 C, apparent Km

Row | Protein | Km [µM]
1 | B1 | 420
2 | B2 | 390
